What was measured:
[1] = molecular target: reg-FSFG, an artificially designed regular FSFG domain with 16 repetitions of the sequence … and an N-terminal His14-TEV tag; test: spectroscopic ellipsometry + QCM-D; FG domain end-grafted through its His tag (4-11 pmol/cm^2) on His tag capturing QCM-D sensors (NTF2 with Nsp1) or on Ni2+-NTA supported lipid bilayers (Nup98-glyco, reg-FSFG, Impβ with Nsp1); NTR titrated in solution from 0.0025 to 10 uM, equilibrium bound amounts by SE; 10 mM Hepes pH 7.4, 150 mM NaCl, 23 °C; linear fit at cNTR <= 0.05 uM, Hill equation at 0.05-10 uM
[2] = molecular target: glycosylated FG domain of Nup98 from Xenopus tropicalis (Nup98-glyco), amino acids 1 to 485, with an N-terminal His14-TEV tag (X. tropicalis); test: as above
[3] = molecular target: reg-FSFG, an artificially designed regular FSFG domain with 16 repetitions of the sequence … and an N-terminal His14-TEV tag; test: spectroscopic ellipsometry; NTF2 and NTF2 W7A mutant sequentially exposed to FG domain films (5-13 pmol/cm^2), equilibrium bound amounts by SE, two to four measurements per FG domain type; native NTF2 on a reg-SSSG film (8.3 pmol/cm^2) as control
[4] = molecular target: glycosylated FG domain of Nup98 from Xenopus tropicalis (Nup98-glyco), amino acids 1 to 485, with an N-terminal His14-TEV tag (X. tropicalis); test: as above

Row | FG motifs in the film per bound NTR at cNTR = 10 uM (FG motifs per bound NTF2 dimer) [1] | FG motifs in the film per bound NTR at cNTR = 10 uM (FG motifs per bound NTF2 dimer) [2] | reduction of the equilibrium bound amount against native NTF2 [3] | reduction of the equilibrium bound amount against native NTF2 [4] | Substance
1 | > 10 | > 10 |  |  | nuclear transport factor 2 from Homo sapiens (NTF2) (from UniProt P61970 1-127) (receptor)
2 |  |  | > 80% | > 80% | W7A mutant of NTF2 (from UniProt P61970 1-127) (receptor)

Reference: publication PMC4874776
